Test results as given in patent publication US20020009436A1, “Methods and compositions for inhibiting adhesion by microorganisms” (priority 1999, published 2002).

Assays:
[1] = test system: E. coli possessing type 1 fimbriae; assay: Adhesion of E. coli to a mannose receptor; assay type: cell-based; settings: E. coli treated with asparaginase versus untreated cells
Experimental: Materials and methods were generally as described in the Examples above, but modified for observing adhesion by E. coli to a mannose receptor. […] The E. coli were then incubated with a source of mannose receptor.

[2] = test system: P. aeruginosa culture supernatants; assay: Proteolytic activity of P. aeruginosa culture supernatants on azocoll; assay type: biochemical; settings: culture supernatants treated with 50 units/ml asparaginase
[3] = test system: E. coli / urinary epithelial cells (UECs); assay: Binding of E. coli to urinary epithelial cells, microscopy (Experiment 1); assay type: cell-based; settings: FIG. 4; greater with increasing concentration or duration of incubation
Experimental: Urinary epithelial cells (UEC) were obtained by a method known to those of skill in the art. Briefly, the cells were obtained by centrifugation (5000×g) of 200 ml of clean-catch-collected first morning male urine. Cells were washed 3× in PBS and suspended to a density of 1×10^9 cells/ml in an end-over-end apparatus. After 30 minutes mixtures were collected on polycarbonate filters (pore size=10 μm) and washed with three volumes of cold PBS. Filters were pressed onto glass microscope slides which are then heat-fixed and stained with crystal violet for 2 min. Slides were examined at 1000× with phase-contrast microscopy. For each experimental condition 200 UEC's are examined. Adherent bacteria were quantitated as described in previous Examples.

[4] = test system: S. epidermidis (clinical isolate); assay: Fibronectin binding assay, S. epidermidis; assay type: cell-based; settings: polyphenol oxidase 80 U/ml, asparaginase 20 U/ml, untreated 0.17
Experimental: (§1) Wells were filled with human serum fibronectin (50 μg/ml) diluted in carbonate buffer (50 mM Na2CO3—NaHCO3, pH 9.5 overnight). Controls were coated with 1% BSA. The wells were washed three times with PBS and incubated with PBS-Tween (0.5% Tween 20 and 0.05% NaN3) 1 h at 37° C. After attachment, the wells were washed three times with PBS-Tween and allowed to dry. Subsequent assays were as described hereinabove.

Bacillus cereus = assay: Growth inhibition of Bacillus cereus; assay type: cell-based
S. pyogenes [5] = assay: Fibronectin binding assay, S. pyogenes; assay type: cell-based; settings: polyphenol oxidase 80 U/ml, asparaginase 20 U/ml
Experimental: as §1

P. gingivalis = assay: Hemagglutination assay of periodontopathogens, P. gingivalis; assay type: cell-based, Porphyromonas gingivalis; parameters: key: + Hemagglutination; − No hemagglutination; settings: sheep blood, polyphenol oxidase 90 U/ml or asparaginase 20 U/ml, 90 min
Experimental: (§2) The hemagglutinations were carried out in 96 microwell (Nunc) plates in which 50 μl of 1% suspension of sheep blood and 50 μl of serially diluted cells suspension in phosphate buffered (10 mM Na2HPO4, 10 mM KH2PO4, 150 mM NaCl, 3 mM KCl) were added. The cells were adjusted at 1.4 OD at 540 nm. All the strains were treated in NaCl-free buffer with polyphenol oxidase (90 U/ml) or asparaginase (20 U/ml) for 90 min at 37° C. before hemagglutination.

[6] = test system: A. naeslundii ATCC 12104 (adhesin) / P. intermedia (receptor); assay: Coaggregation A. naeslundii ATCC 12104 / P. intermedia; settings: P. intermedia (receptor) enzyme treated; polyphenol oxidase 90 U/ml, asparaginase 20 U/ml
Experimental: S. sanguis 10556, A. naeslundii strains 12104 and T14V and E. coli were grown static cultures in Todd-Hewitt broth (BBL Microbiology Systems, Cockeysville, Md.). P. gingivalis W50, A. actinomycetemcomitans and C. ochracea were grown in brain heart infusion broth (BBL). F. nucleatum 22586 and P. intermedia 25611 were grown in modified Schaedler broth (BBL). All oral species except S. sanguis 10556 were incubated at 37° C. as static cultures under an anaerobic atmosphere containing H2, CO2 and N2(10:10:80) with GasPaks (BBL). S. sanguis was incubated at 37° C. as static cultures in 5% CO2.
Bacteria were harvested in the mid to late exponential growth phase by centrifugation (10,000×g for 10 min at 4° C.). The cells were washed twice in coaggregation buffer (30 mM 3-[N-morpholino]propanesulfonic acid (MOPS), pH 7.0) and adjusted to an optical density of 0.6-0.8 at 540 nm (1-cm path). […]
Coaggregation was assessed by turbidity changes. Following mixing of the cells for 10 s on a Vortex mixer, absorbance readings were made every 30 min. The percentage of coaggregation was calculated from the following formula: Percent coaggregation=[OD540(A)+OD540(B)−OD540(A+B)]/(OD540(A)+OD540(B)), where A is the control containing cells of one strain, B is the control containing cells of the other strain, and A+B is the reaction mixture containing both cells. […]

S. pneumoniae = assay: Adhesion of pneumococci to buccal cells; assay type: cell-based; settings: strain 6303
Experimental: Methods for handling polyphenol oxidase and asparaginase and for observing adhesion by microorganisms were generally as described in the previous Examples with variations to adapt these methods to these bacteria and to buccal cells. In particular, adhesion was measured in a manner similar to that just described for S. pyogenes.

S. sanguis = assay: Adhesion of S. sanguis to saliva-coated hydroxylapatite beads; assay type: cell-based, Streptococcus sanguis; settings: polyphenol oxidase 100 μg/ml or 150 units; asparaginase 20 U/ml; 1 hr at 37° C.
Experimental: S. sanguis was grown and handled according to procedures known to those of skill in the art. Hydroxylapatite beads were coated with saliva and washed. Adhesion was measured using [^3H]thymidine labeled streptococci. Various cell densities were run but using a single 40 mg weight of beads.
The “cooperative” adhesion (loss of upward slope on the Scatchard plot) was absent following both enzyme treatments. Incubation of cells with enzymes was 1 hr at 37° C.

S. sobrinus 6715 = assay: Disc-diffusion growth assay, S. sobrinus; settings: 500 μg/ml and 1.0 mg/ml, 18 h
Experimental: Standard disc-diffusion assays were performed with 500 μg/ml and 1.0 mg/ml of polyphenol oxidase. Duplicate series of ten-fold dilutions (to 10^−8) of late exponential phase cultures of S. sobrinus were made in PBS. Eighty μl of each concentration of polyphenol oxidase was pipetted onto 13 mm sterile filter paper discs. The discs were applied to the center of agar plates previously inoculated with lawns of S. sobrinus. Plates were incubated for 18 h and examined visually for any effect of polyphenol oxidase on growth of the bacteria.
Duplicate series of ten-fold dilutions (to 10^−8) of late exponential phase cultures of S. sobrinus were made in PBS. Eighty , μl of each concentration of asparaginase was pipetted onto 13 mm sterile filter paper discs. The discs were applied to the center of agar plates previously inoculated with lawns of S. sobrinus. Plates were incubated for 18 h and examined visually for any effect of asparaginase on growth of the bacteria.

F. nucleatum = assay: Hemagglutination assay of periodontopathogens, F. nucleatum; assay type: cell-based, Fusobacterium nucleatum; parameters: key: + Hemagglutination; − No hemagglutination; settings: sheep blood, polyphenol oxidase 90 U/ml or asparaginase 20 U/ml, 90 min
Experimental: as §2

S. pyogenes [7] = test system: S. pyogenes
S. pyogenes [8] = assay: Adhesion of S. pyogenes to buccal epithelial cells (coaggregation slides); assay type: cell-based, Streptococcus pyogenes
Experimental: This experiment began with growing and harvesting of five strains of S. pyogenes, including M14 Lowe, YL3, M24 and T2/MR. The strains were grown in BHI broth in a 37 degree incubator overnight. The cultures were grown under static conditions. The cells were then harvested by washing twice with phosphate buffer (pH=7). Treatment of the cells with polyphenol oxidase and asparaginase began with finding the optical density of the stock solution of harvested cells. This was done using a spectrophotometer. Each strain was treated with two concentrations of polyphenol oxidase (100 μg/OD and 300 μg/OD) and one concentration of asparaginase (300 μg/OD). The treatment of the cells with polyphenol oxidase took place in the 37 degree incubator for 1.5 hours. The cells were then washed twice with phosphate buffer (pH 7). At this time, a coaggregation was made and allowed to set at static conditions for two hours. Slides were then made of each coaggregation.
The treatment of the cells with asparaginase also took place in the 37 degree incubator for three hours. Before treatment, the cells were washed twice with phosphate buffer of pH=8. After treatment, they were washed twice with phosphate buffer of pH=7. Coaggregations and slides were then made as for polyphenol oxidase.
The buccal cells were harvested from the inner cheeks using cotton swabs. […]

B1: asparaginase: enzyme that catalyzes hydrolysis of the side chain amide group of asparagine to a carboxyl group; E. coli asparaginase (protein, UniProt P00805 23-348, looked up)
L-asparaginase 2: LPNITILATGGTIAGGGDSATKSNYTVGKVGVENLVNAVPQLKDIANVKGEQVVNIGSQDMNDNVWLTLAKKINTDCDKTDGFVITHGTDTMEETAYFLDLTVKCDKPVVMVGAMRPSTSMSADGPFNLYNAVVTAADKASANRGVLVVMNDTVLDGRDVTKTNTTDVATFKSVNYGPLGYIHNGKIDYQRTPARKHTSDTPFDVSKLNELPKVGIVYNYANASDLPAKALVDAGYDGIVSAGVGNGNLYKSVFDTLATAAKTGTAVVRSSRVPTGATTQDAEVDDAKYGFVASGTLNPQKARVLLQLALTQTKDPQQIQQIFNQY
[1]
  binding to the mannose receptor: reduced binding
[2]
  proteolytic activity on azocoll: markedly reduced proteolytic activity
[3]
  binding of bacteria to urinary epithelial cells: reduced binding
[4]
  Absorbance (fibronectin): 0.16
Bacillus cereus
  inhibition of growth of Bacillus cereus: did not significantly inhibit growth
S. pyogenes [5]; S. pyogenes M4, untreated 0.32
  Absorbance (fibronectin): 0.15
S. pyogenes [5]; S. pyogenes M24, untreated 0.33
  Absorbance (fibronectin): 0.21
P. gingivalis; dilution 1/2
  Hemagglutination: −
P. gingivalis; dilution 1/8
  Hemagglutination: −
P. gingivalis; dilution 1/16
  Hemagglutination: −
P. gingivalis; dilution 1/32
  Hemagglutination: −
P. gingivalis; dilution 1/64
  Hemagglutination: −
P. gingivalis; dilution 1/128
  Hemagglutination: −
P. gingivalis; dilution 1/256
  Hemagglutination: −
P. gingivalis; dilution 1/512
  Hemagglutination: −
[6]
  Inhibition % of coaggregation: 23%
S. pneumoniae
  adhesion of S. pneumoniae to buccal cells: able to reduce adhesion
S. sanguis
  adhesion to hydroxylapatite: reduced adhesion
S. sobrinus 6715
  inhibition of growth of S. sobrinus: did not significantly inhibit growth
F. nucleatum; dilution 1/2
  Hemagglutination: +
F. nucleatum; dilution 1/8
  Hemagglutination: +
F. nucleatum; dilution 1/16
  Hemagglutination: +
F. nucleatum; dilution 1/32
  Hemagglutination: +
F. nucleatum; dilution 1/64
  Hemagglutination: +
F. nucleatum; dilution 1/128
  Hemagglutination: −
F. nucleatum; dilution 1/256
  Hemagglutination: −
F. nucleatum; dilution 1/512
  Hemagglutination: −
S. pyogenes [7]
  inhibition of growth of S. pyogenes: did not significantly inhibit growth
S. pyogenes [8]; asparaginase 300 μg/OD, three hours
  binding of bacteria to buccal cells: reduced binding
S. pyogenes [8]; equivalent amount
  reduction in adhesion compared with polyphenol oxidase: greater reduction in adhesion than an equivalent amount of polyphenol oxidase
